From patent publication US20160272716A1 (AGENSYS, published 2016)
Numbering of substitutions follows the chain as printed.

Legend:
[1] = molecular target: T1, human FLT3 expressed on the cell surface (human, UniProt P36888 27-993); test: FACS, biotinylated isotype control 10 ug/ml, Streptavidin-PE, SEM cells (B-ALL)
T1 construct: FLT3 on human leukemia cell lines, on recombinant cells and on primary blood cells; also called Flk2; STK1

[2] = molecular target: T1, human FLT3 expressed on the cell surface; test: FACS, biotinylated isotype control 10 ug/ml, Streptavidin-PE, EOL-1 cells (AML)
[3] = molecular target: T1, human FLT3 expressed on the cell surface; test: FACS, biotinylated isotype control 10 ug/ml, Streptavidin-PE, MONOMAC-1 cells (AML)
[4] = molecular target: T1, human FLT3 expressed on the cell surface; test: FACS, biotinylated isotype control 10 ug/ml, Streptavidin-PE, REH cells (ALL)
[5] = molecular target: T1, human FLT3 expressed on the cell surface; test: FACS, biotinylated isotype control 10 ug/ml, Streptavidin-PE, OCI-AML2 cells (AML)
[6] = molecular target: T1, human FLT3 expressed on the cell surface; test: FACS, biotinylated isotype control 10 ug/ml, Streptavidin-PE, THP-1 cells (AML)
[7] = molecular target: T1, human FLT3 expressed on the cell surface; test: FACS, biotinylated isotype control 10 ug/ml, Streptavidin-PE, NALM-1 cells (CML)
[8] = molecular target: T1, human FLT3 expressed on the cell surface; test: FACS, biotinylated isotype control 10 ug/ml, Streptavidin-PE, PL-21 cells (AML)
[9] = molecular target: T1, human FLT3 expressed on the cell surface; test: FACS, biotinylated isotype control 10 ug/ml, Streptavidin-PE, SKM-1 cells (AML)
[10] = molecular target: T1, human FLT3 expressed on the cell surface; test: FACS, biotinylated isotype control 10 ug/ml, Streptavidin-PE, MV-4-11 cells (AML)
[11] = molecular target: T1, human FLT3 expressed on the cell surface; test: FACS, biotinylated isotype control 10 ug/ml, Streptavidin-PE, MOLM-13 cells (AML)
[12] = molecular target: T1, human FLT3 expressed on the cell surface; test: FACS, biotinylated isotype control 10 ug/ml, Streptavidin-PE, RS4;11 cells (B-ALL)
[13] = molecular target: T1, human FLT3 expressed on the cell surface; test: FACS on MOLM-13 cells: 30 min pre-incubation with human FLT3 ligand, then biotinylated antibody, streptavidin-PE
Experimental: (§1) In another experiment, The ability of anti-FLT3 antibodies, CHv62.21 and v62-1b37.1, to bind to FLT3 expressed on the surface of human leukemia MOLM-13 cell line was evaluated in the presence of human FLT3 Ligand (hFL). Isotype control antibody, AGS91.1-pAF, was used as a negative control.
(§2) Briefly, The MOLM-13 cells were seeded at a density of 50,000 cells per well onto round-bottom 96 well plates. The plates were washed one time with 150 μl per well of PBS. The cells were Fc blocked (20 μg/mL) at a volume of 50 μl per well in FACS buffer (PBS+2% FBS+0.1% sodium azide) to reduce non-specific binding. Cells were incubated at 4° C. for 15 minutes. Human FLT3 Ligand was added to appropriate wells at 100 ng/mL and serially diluted 1:2 across the plate for a total of 11 points. Cells were incubated for 30 minutes at 4° C. prior to adding biotinylated FLT3 antibodies. After incubation, the biotinylated anti-FLT3 antibodies and isotype control antibody were prepared in FACS buffer at 10 μg/mL and 1 μg/mL and 25 μl was added to wells and incubated for 1 hour at 4° C. Cells were washed two times with FACS buffer and Streptavidin-PE (Jackson immune) was added 100 μl per well and incubated for 1 hour at 4° C. Cells were washed two times with FACS buffer and read on the Attune Cytometer (Life technologies) and analyzed in FlowJo (Tree Star) software.

[14] = molecular target: T1, human FLT3 expressed on the cell surface; test: competition FACS on MOLM-13 cells: FL titrated 0.1 to 100 ng/ml, 30 min pre-incubation; displaced antibody: biotinylated cHv62-1b37.1 at 10 ug/ml
Experimental: as §1, §2

[15] = molecular target: T1, human FLT3 expressed on the cell surface; test: FACS, biotinylated antibody 10 ug/ml, Streptavidin-PE, NALM-1 cells (CML)
Experimental: (§3) CHv62.21 was tested for binding to AML and B-ALL cell lines grown in vitro. (See, FIG. 15A-M). Briefly, CHv62.21 and an isotype matched control antibody were biotinylated using NHS LC biotin. In vitro, exponentially grown cancer cell lines were used for all experiments. Cells were harvested by and washed by centrifugation. Cells were Fc blocked to reduce non-specific binding. Antibodies were diluted to 10 ug/ml final concentration and co-incubated with cells at 4° C. for 1 hour. At the end of the incubation, cells were washed and incubated with secondary detection Streptavidin-PE antibody at a final 1:200 (2.5 ug/ml) dilution for 1 hour at 4° C. After washing un-bound secondary antibody, cells were analyzed by FACS and geometric mean fluorescence was determined and reported. Fluorescence ratio was calculated as follows: Geo mean cHv62.21/Geo mean isotype control=MFR, a measure of fold expression above isotype control.

[16] = molecular target: T1, human FLT3 expressed on the cell surface; test: FACS, biotinylated antibody 10 ug/ml, Streptavidin-PE, MOLM-13 cells (AML)
Experimental: as §3

[17] = molecular target: T1, human FLT3 expressed on the cell surface; test: FACS, biotinylated antibody 10 ug/ml, Streptavidin-PE, RS4;11 cells (B-ALL)
Experimental: as §3
(§4) Geometric Mean values and Mean Florescence ratios (MFR) values were obtained (Table VI) and histograms are shown (FIG. 15A-M).

[18] = molecular target: T1, human FLT3 expressed on the cell surface; test: FACS, biotinylated antibody 10 ug/ml, Streptavidin-PE, REH cells (ALL)
Experimental: as §3, §4

[19] = molecular target: T1, human FLT3 expressed on the cell surface; test: FACS, biotinylated antibody 10 ug/ml, Streptavidin-PE, SEM cells (B-ALL)
Experimental: as §3

[20] = molecular target: T1, human FLT3 expressed on the cell surface; test: FACS, biotinylated antibody 10 ug/ml, Streptavidin-PE, MONOMAC-1 cells (AML)
Experimental: as §3, §4

[21] = molecular target: T1, human FLT3 expressed on the cell surface; test: FACS, biotinylated antibody 10 ug/ml, Streptavidin-PE, THP-1 cells (AML)
Experimental: as §3, §4

[22] = molecular target: T1, human FLT3 expressed on the cell surface; test: FACS, biotinylated antibody 10 ug/ml, Streptavidin-PE, OCI-AML2 cells (AML)
Experimental: as §3, §4

[23] = molecular target: T1, human FLT3 expressed on the cell surface; test: FACS, biotinylated antibody 10 ug/ml, Streptavidin-PE, EOL-1 cells (AML)
Experimental: as §3, §4

[24] = molecular target: T1, human FLT3 expressed on the cell surface; test: FACS, biotinylated antibody 10 ug/ml, Streptavidin-PE, PL-21 cells (AML)
Experimental: as §3, §4

[25] = molecular target: T1, human FLT3 expressed on the cell surface; test: FACS, biotinylated antibody 10 ug/ml, Streptavidin-PE, SKM-1 cells (AML)
Experimental: as §3, §4

[26] = molecular target: T1, human FLT3 expressed on the cell surface; test: FACS, biotinylated antibody 10 ug/ml, Streptavidin-PE, MV-4-11 cells (AML)
Experimental: as §3, §4

[27] = molecular target: T1, human FLT3 expressed on the cell surface; test: flow cytometry, cell surface FLT3

T1 sequence (P36888 27-993 T227M limits assumed): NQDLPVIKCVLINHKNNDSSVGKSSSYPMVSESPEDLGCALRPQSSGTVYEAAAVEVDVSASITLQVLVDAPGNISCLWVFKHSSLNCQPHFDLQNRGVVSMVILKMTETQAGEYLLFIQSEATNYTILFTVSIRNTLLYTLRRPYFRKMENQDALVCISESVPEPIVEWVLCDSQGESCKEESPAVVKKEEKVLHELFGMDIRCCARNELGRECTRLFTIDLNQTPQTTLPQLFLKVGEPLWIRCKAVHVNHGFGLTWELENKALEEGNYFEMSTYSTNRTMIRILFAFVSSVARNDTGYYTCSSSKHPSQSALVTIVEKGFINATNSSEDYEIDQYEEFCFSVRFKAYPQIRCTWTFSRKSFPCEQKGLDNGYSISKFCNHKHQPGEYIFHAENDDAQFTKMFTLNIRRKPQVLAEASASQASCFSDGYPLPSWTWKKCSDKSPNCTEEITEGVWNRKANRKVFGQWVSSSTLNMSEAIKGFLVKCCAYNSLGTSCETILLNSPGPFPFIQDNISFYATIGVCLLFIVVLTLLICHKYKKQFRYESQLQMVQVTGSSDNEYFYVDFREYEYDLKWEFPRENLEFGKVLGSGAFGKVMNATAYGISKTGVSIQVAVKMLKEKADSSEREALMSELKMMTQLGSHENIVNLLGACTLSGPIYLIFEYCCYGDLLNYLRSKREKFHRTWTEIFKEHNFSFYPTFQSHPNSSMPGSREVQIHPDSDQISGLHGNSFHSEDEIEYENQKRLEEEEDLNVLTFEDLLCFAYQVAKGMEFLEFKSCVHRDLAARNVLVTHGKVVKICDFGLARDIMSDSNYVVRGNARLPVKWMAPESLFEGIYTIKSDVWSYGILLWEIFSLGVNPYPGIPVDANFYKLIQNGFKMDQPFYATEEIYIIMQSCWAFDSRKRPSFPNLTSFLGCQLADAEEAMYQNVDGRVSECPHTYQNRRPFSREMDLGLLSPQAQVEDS

Molecule “isotype matched control antibody (Example 9)” has a Geometric Mean fluorescence [1] of 212, a Geometric Mean fluorescence [2] of 281 and a Geometric Mean fluorescence [3] of 338. For the same molecule, the Geometric Mean fluorescence [4] was 235, the Geometric Mean fluorescence [5] was 329 and the Geometric Mean fluorescence [6] was 474. The Geometric Mean fluorescence [7] was 262, the Geometric Mean fluorescence [8] was 570 and the Geometric Mean fluorescence [9] was 445. For the same molecule, the Geometric Mean fluorescence [10] was 366, the Geometric Mean fluorescence [11] was 320 and the Geometric Mean fluorescence [12] was 213.

B1: v62-1b37.1 (antibody, human IgG1, kappa, V domains shown)
VH: EVQLVESGGGVVRPGGSLRLSCAASGFTFDDYGMSWVRQAPGKGLEWVSGINWNGGSTGYADSVKGRFTISRDDAKNSLYLQMNSLRAEDTALYHCARDGYTYGPFDNWGQGTLVTVSS
VL: DIQMTQSPSSLSASVGDRVTITCRASQGIRNDLGWYQQKPGKAPKRLIYAASSLQSGVPSRFSGSGSGTEFTLTISSLQPEDFATYYCLQHNSYPYTFGQGTKLEIKR
modifications: biotinylated in the MOLM-13 FACS
notes: also called cHv62-1b37.1
B1: binds [13].

B2: human FLT3 ligand (ligand, UniProt P49771 27-185, looked up)
chain: TQDCSFQHSPISSDFAVKIRELSDYLLQDYPVTVASNLQDEELCGGLWRLVLAQRWMERLKTVAGSKMQGLLERVNTEIHFVTKCAFQPPPSCLRFVQTNISRLLQETSEQLVALKPWITRQNFSRCLELQCQPDSSTLPPPWSPRPLEATAPTAPQPP
modifications: biotinylated (Sulfo-NHS-LC-Biotin) in the Luminex assay
notes: later experiments say human FLT3 ligand; Treated as one molecule; also called hFL
For B2, the “IC50 (read off the curve)” value [14] was roughly 10 ng/mL.

B3: CHv62.21 MAb (antibody, human IgG1, kappa, V domains shown)
VH: EVQLVESGGGLVRPGGSLRLSCAASGFTFSGYSINWVRQAPGKGLEWVSSISSSSNYIYYADSVKGRFTISRDNAKNSLYLQMNSLRAEDTAVYYCAREGFIAGTTFDAFDIWGQGTMVTVSS
VL: B1 VL with S93G, Y94F
modifications: C-terminal lysine deleted in most of the purified MAb; N-terminal pyroglutamate in a part of it; biotinylated with NHS LC biotin for the FACS of Table VI
notes: Recombinant, CHO-expressed, human IgG1 / kappa; variable regions from hybridoma v62-1b21; ATCC PTA-121831; also called cHv62-1b21.1
B3 was tested, and the “MFR (Geo mean cHv62.21/Geo mean isotype control)” value (“MFR” for short) [15] was 49 fold, the “MFR” value [16] was 44 fold and the “MFR” value [17] was 86 fold. For the same molecule, the “MFR” value [18] was 69 fold, the “MFR” value [19] was 623 fold and the “MFR” value [20] was 34 fold. For the same molecule, the “MFR” value [21] was 42 fold, the “MFR” value [22] was 17 fold and the “MFR” value [23] was 50 fold. For the same molecule, the “MFR” value [24] was 7 fold, the “MFR” value [25] was 7 fold and the “MFR” value [26] was 8 fold.

B4: v62-1b21 (hybridoma MAb) (antibody, V domains shown)
VH: B3 VH
VL: B1 VL with S93G, Y94F
notes: also called AGS62.21; v62.21
B4: binds [27].
